The results in this text go back to patent US20140057332A1, “GLUCO-OLIGOSACCHARIDE OXIDASES FROM ACREMONIUM STRICTUM AND USES THEREOF” (The Governing Council of the University of Toronto, priority 2011, published 2014).

Data set [1] is described as follows: Chromogenic H2O2 oxidase assay / kinetic analysis on NAG.
Method: (§1) A chromogenic assay was used to measure hydrogen peroxide production (15). Reactions contained 0.1 mM 4aminoantipyrine (4AA), 1 mM phenol, 0.5 U horseradish peroxidase, 40 mM Tris-HCl (pH 8.0), and different substrates were initiated by adding 0.2 μg of enzymes to the 250 μL reaction mixture. The production of H2O2 was coupled to the oxidation of 4aminoantipyrine by horseradish peroxidase and detected at 500 nm. Reactions were incubated at 37° C. for 15 min to measure the specific activity of GOOX on 10 mM of monosaccharide or 1 mM of oligosaccharide.
(§2) At least 12 substrate concentrations were included to obtain kinetic parameters for each substrate. Initial rates were obtained by measuring reaction products every 30 s for 15 min at 37° C. and pH 8.0, and kinetic parameters were calculated using the Michaelis-Menten equation (GraphPad Prism5 Software).
Data set [2] can be described thus: Chromogenic H2O2 oxidase assay / kinetic analysis on maltose.
Method: as §1, §2
The nature of data set [3]: Chromogenic H2O2 oxidase assay on xylotetraose. The following applies: 1 mM xylotetraose; 37° C., 15 min.
Method: as §1
An additional eight mutations, identified as Y72F, Y72A, E247A, E314A, W351A, N388S, Q353N, Q384A, were created in GOOX-VN to assess the influence of these residues on the substrate selectivity of GOOX-VN. […] The specific activity of each mutant was then measured at 37° C. for 15 min using 10 mM mono-sugars and 1 mM oligosaccharides as performed for Y300A, Y300N, and W351F (Table 11).
The nature of data set [4]: Chromogenic H2O2 oxidase assay / kinetic analysis on xylobiose.
Method: as §1, §2
A short description of data set [5]: Effect of deglycosylation with PNGaseF on enzyme activity. Format: biochemical. The procedure:
Approximately 2 μg of purified enzyme was treated with PNGaseF (New England Biolabs) using denaturing and native conditions. Samples that were deglycosylated using denaturing conditions were analysed by SDS PAGE, while samples deglycosylated using native conditions were used to evaluate the impact of glycosylation on enzyme activity. The activity of enzymes was measured on 10 mM maltose at 37° C. for 15 min. (Table 7). N-glycosylation was predicted by NetNGlyc (http://www.cbs.dtu.dk/services/NetNGlyc/) while O-glycosylation was predicted by OGPET (http://ogpet.utep.edu/OGPET/).

B1: Acremonium strictum gluco-oligosaccharide oxidase GOOX-VN (type strain CBS 346.70, V38 and N388), SEQ ID NO. 2 (Sarocladium strictum; A38V/S388N) (protein)
chain: NSINACLAAADVEFHEEDSEGWEMDGTAFNLRVDYDPVAIAIPRSTEDIAAAVQCGLDAGVQISAKGGGHSYGSYGFGGEDGHLMLELDRMYRVSVDDDNVATIQGGARLGYTALELLDQGNRALTHGTCPAVGIGGHVLGGGYGFATHTHGLTLDWLVGATVVLADASIVHVSKTENADLFWALRGGGGGFAIVSEFEFNTFEAPEIITTYQVTTTWNRKQHVAGLKALQDWAENTMPRELSMRLEINANALNWEGNYFGNAKDLKKVLQPIMKKAGGKSTISKLVETDWYGQINTYLYGADLNITYNYDVHEYFYANSLTAPRLSDEAISAFVDYKFDNSSVRPGRGWWIQWDFHGGKNSALASHSNDETAYAHRDQLWLWQFYDNIYDYENNTSPYPESGFEFMQGFVATIEDTLPEDRKGKYFNYADTTLDKEEAQKLYWRGNLEKLQAIKAKYDPEDVFGNVVSVEPIA
On to B1, for which the “Specific Activity of Enzyme Variants” value in data set [1] (10 mM NAG, 37° C., 15 min) worked out at 0.2 µmol/min/mg; in data set [2] (1 mM maltose, 37° C., 15 min) it was 1.5 µmol/min/mg; in data set [3], 10.2 µmol/min/mg; in data set [4] (1 mM xylobiose, 37° C., 15 min), 7.9 µmol/min/mg. Also, the “Specific activity Defined substrate concentration” value was 0.25 µmol/mg/min in data set [1] (10 mM NAG, 37° C., 15 min); 1.53 µmol/mg/min in data set [2] (1 mM maltose, 37° C., 15 min); 7.92 µmol/mg/min in data set [4] (1 mM xylobiose, 37° C., 15 min). In addition, the “oxidation of NAG” value in data set [1] (after 3 min using 10 mM sugar) was “detected”. In addition, the “Specific activity From Vmax” value in data set [1] (substrate NAG) turned out to be 8.00 µmol/mg/min; in data set [2] (substrate maltose), 5.94 µmol/mg/min; in data set [4] (substrate xylobiose), 8.73 µmol/mg/min. For the same molecule, the “Activity, Deglycosylated” value in data set [5] (deglycosylated with PNGaseF (native conditions), 10 mM maltose, 15 min at 37° C., duplicate) stood at 3.43 nmol/min. Besides, the “loss in enzyme activity on deglycosylation” value in data set [5] (deglycosylation under native conditions) is “did not cause a detectable loss in enzyme activity”. Besides, the “Activity, Glycosylated” value in data set [5] (glycosylated enzyme, 10 mM maltose, 15 min at 37° C., duplicate) amounted to 3.51 nmol/min.
